In the domain aggregation screens of Martell et al. (2025):

Assay: soluble fraction after stress (log2 fold change); higher = more stays soluble; pooled small domains, quantitative proteomics
Conditions: stress: 75 degC
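Further: 20 min heating vs room temperature control held 20 min.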

Sequence	soluble fraction (log2)
HMDYYKILGLSTSATLDQIKKAFRQLAIEFHPDKNPNNPTAEDKFQRISEAYAVLSNPEKRAEYDRSY	-0.0123
HMEAAETAVVTGTIVNIRSGPTLDFEAFAQVKQGDRLPVLDKFYNWYYVKLPSGVNGWISGQLVRIEQ	-2.86
HMEAELNSLVKTYENMKPKAAAQVFEELDMDVLLDVVERMKEKKLAPILAQVTPTRAKEITYELTQRR	-0.102
HMEAFDYLGRRTRDLLERQGWTTVPLVRDAYLAVPGGERLLQVPGFGRKSLREVRRWLWLQIGDPRFE	-1.25
HMEAIYKKNKNLIHTVIRDNFPFLIDTADYEDAFQEGSIGLIRAIDRFDDGLEYKFSSYAYTAIRNQIA	-1.15
HMEALGLSPRQVDVLRLLVEGRSNKMIMRELELSESTVKTHLQAIFRRLGVSSRTQAVVAAARLGL	-1.2
HMEALSAREIEILQALETGASNRELAKMLFISEATVKTHLVHIYQKLGVGTRTAAITEARERRV	-2.1
HMEANAYFDAYPDVAAEWARLSGSDEGKATLSAIGVTTPQQFAQYHYTTFGSKENRNAPVGYTP	0.072
HMEANPLTDREKEVLELVADGKNTKEIAQELSIKSGTVRNYISMILEKLEVKNRIEAITRSKEKGWF	-0.161
HMEAPMPIFWRPQFRIGHDDIDADHRYLILLINTVELVLRFPDDPRNVELALTELRRYAEDHFEREER	-0.0783
HMEAQAHYDAIYKAHPNADSIAQSAEFKAWVDAQPSVVRNAYWQLFDPKEGGTAEQIVEVFDAFVKSS	0.327
HMEDDIRSSIRTLDQFISKNQITLSKDVKNYILQLLSNDRMVTINELEKIKIYYDSNENIDLDTVKILLN	-0.796
HMEDEEILNEIRHTEQYVYYFGNYIMEHHVSRGLSKEKVIASLARELQIEIADIREDFDGMIEQIKTNILN	-0.329
HMEDESSIERYLGSGAIKGIGPSLAARIVKKFGKDTFRIIEQEPERLAEIKGISERKAMEISTLMEEK	-0.056
HMEDGRLPPPGTVLRREYKGRAVFVRVLPKGFEFEGEVYRSLSAIAAKVTGSHWNGFRFFGLHE	-3.01
HMEDHMVVFGKGGRITRLPDKATVLEYLDAANFFASRSSVVKVNGKLASLDQTLRDGDSIEIVD	-0.407
HMEDINAVLAENLRRLRESRRLSLDAVARLTGVSKSMLGQIERGEVNPTVSTMWKIAGGLKVNFTALFRRE	-3.79
HMEDIQPSVIFQNNMIDGFKKFGVSFLQNRRNVNVNTLNGLASAGTYPKWQQLLVNKISYIDMLLSTGG	0.0954
HMEDKIIVTVPGEYHLERIDRFLAANLEEDLSRSLIQRYIRENLITVNGEAVRANYKVKTDDEILITFPQ	-0.842
HMEDLAERLDNLSTMYAKMDPVRAAQVLLESKNKSENIEVLKRLKPKSLGLILENMPPREAYDYVSELQ	0.0743
HMEDLGYVKVASQTAAIRKSAAVQAGQIGTVHEGETYRYLGEEEGWYLVEYNGQKAYISWDDGEL	-0.323
HMEDMMKALLDVVRAQHTATEGSEERPFDINDIIDMALNITGRPEEPEEQQELSDTIQKLAESLAPDIFP	-0.424
HMEDNKLKNEIKNELVSHLEKPYSVEDLADALKYHGSAAFKLIVQELAILERERAVVVTHDGNFKINSS	-1.11
HMEDPAVYYKILQIPPDASLSEIHRAFEKITSAWDPERYPHISSWKETSAKKLQEIRNAYEKLLILRETG	-0.269
HMEDPFLWVEKLGSSDWIEREESAEKLLEAGEASVEALRTALTHPDLEVRERVRELLSVISPL	0.409
HMEDPRVTEIKNLQQDLAKKFKPTQGPASASDAVERVTAITTVMTKVAALPEDLRSEAMQPGKKM	-0.327

Sequence	soluble fraction (log2)
HMEDQFWQNRAEMALASARRAGRIVTYAEMADAADIPAPQRIHKLTLWLEATMRQDHASGQPLRAALV	0.0883
HMEDQITNQQFTMTKQSILDLLVKKSYPPYELANELHLKKEEVLPIIRFLIAENEIHFKDGMLHLPH	-1.01
HMEDQLDSLKDIIYDYLENNELYYNDLQEFKKIIIENMEFIHPNLNHKLIDNNFFKLINFKLEYNF	-0.152
HMEDSSSILNRMRKLIALLNRASEAYYKENKEIISNFEYDRLYDELLGLESRSNTVLSGSPTYKV	-1.87
HMEDTFEYPVSVNGKLRFKIELPVSMEKDEIRNIVLNDERAKKWLATGTLTNLIVVPNRIINIVIK	-0.528
HMEDTSTLSIKHKIKELINQESPQAILSDDKLVELLAAQGIKIARRTIAKYRETMNIPTSAERKRQKRPP	0.0599
HMEDVTLSLVVGEDLDGERLDVFLTWKLDRTRSQVQALIRDGKVRLEQGQRARPSMVVRSGMGISVSLEPR	-2.15
HMEDYYKILGVSKDASIDDIKKSYRKLSLQNHPDRNKSPQASENFAKINSAYEVLSDQRKKRQYDMQQSM	-0.073
HMEEAQWEFKWENTDSAEIHGPHSSSEMLKWQENSFFAKGVYVRKVGGDTTDFTDGKRIDFDLY	-0.705
HMEEDPILVAQRFLNIFRQLHIFDQQRREEFNSMILALPPEIRGTFGVLPGGSVLQEYVDELEISKGMA	-1.11
HMEEDPVISQAQRQALFKLAHDHFGQEEGNKVILRLIGEHGLRSTTNMTASVYKTVTDALIQVIESMVEG	-0.45
HMEEEDELALFLREERKNYDLTLTDVHEKTGIPQKVLKEFQWGDAQLTDRQRYTLTQYVEEAREYFQENA	0.161
HMEEEVKVPKIKGLTEAEAKAKLKSEGLESGTARSAYSDTVEEGHIISQSIQEGTKVPKGTAVSYEVSKGK	0.149
HMEEGKVKRMAMDMVDAFYDKVSAMVDDNNDLGRSVVDAWDDEEENPPEYMLDDETRAILVNAGKIEPE	0.298
HMEEHSLRKQEMLRIIEALEQLTPKEKTVVVLYYFKGVLFKDIAMLLDVTEGRISQLHTAAMGRLKKLMD	-0.14
HMEEIDLTPAEEILNKLPDNSRGYLIPTLNKIQNAYRFLPDPAMELLMEFFNVSRAEIFGVISFYPQLMI	-0.127
HMEEIPYGVISAKAGAAAYDYIKKSIELGIEKKIDGVATAPIQKEAIHMAGISYIGHTEMYQGIT	0.178
HMEEKEIGQTLSVKIRENVLSKLDMTRDLEDEEVKHIIEHEIWLAAKKHYISLEERNSIKRGIFNSL	-0.895
HMEELELTIDGEMVGRIDKQLGHHFDQFSRSQIQHWIEDGHVLVNGKQVKPKYKLLVGDHVQIIPEEPQK	0.261
HMEELIIQEELANKRLDIAISLLFPELTRAHAQKLIKEGSVLVDGKPRKASYPLTAGKRLSVTLPEPE	-0.172
HMEELPVLHLKHVVVEGESLWKLAEQYLNDGTRWQEIYMLNRENISNPDLIREGQELNIQFLQGE	-0.382
HMEENIKKDIEVPNIEGLTIDEAKKRLKEVNLNISIEDMEEKEGTEIITQQLPKAGIKVKEGVAIIAY	0.227
HMEEPEFEPYVVRLTAIALNVRTGPGTQYPVAMVIRGGGAFTIVAEENGFGLLKSGAGWIMLQHTERV	-2.61
HMEEQELQLIQFPIASGSAWAGKAVRELILPPETLLVMLIRGTETMIPKGDTMVQEGDTAVLSASAYRDD	-0.472
HMEEQKYEYHLGDVVYLGVDKYEILGITNNIVTLYDPEFPLLNKQLDFDEFEKRVKDNYANEHLKVT	-0.324
HMEERDMKGSISDLVERYADQLTDEQLEEIVLGIKNGLLEEDVKSYFFLPAEDMRRIRTALEQVR	0.0219

Sequence	soluble fraction (log2)
HMEESEMIAFATVAHRIVGKPVEAVMRSYRNRDNIPADIAAIVSSKFTFSVTMAEASYRNPKKSYQVNSII	0.275
HMEETLLLRESVRSALAMLAPTLRITLEMYVYRQLSPTEIALRSGVSISMVRRRLGYGLYKLRTQLIDA	-0.121
HMEFEIGQEDSKKSVKQFLYNTLRLSHGQVTALKRQERGILLNGERVFVTALLQEGDRLSLLLE	-1.7
HMEFFIIDHNGQQAGPFSFDQLVQKGISPETLVWKQGMADWNPAWKVEELKAVLEAVEANQSNQKAQ	≥ 1.04
HMEFGEVLAQLRQKRHISQAELGRAIFVSGGTISNYEKGVHFPDVEKLLLLADYFNVTTDYLLGRT	-2.65
HMEFNQAVQDVNELSMQYAKSDVLWPEFEPKVLAFAKNELSQMPPNQWKFALQTFYNGLKQAA	-0.576
HMEFPLSPHQYSVLRLMAQGLSNKQIAERLFLSENTVKGYVQEVLRRLGARNRLEAVMIANRRGWL	-0.316
HMEFPYISGVDVGTISNKEFARFETTKASDIVIALDKSGIPFSARFGDSEIVLTYDGSYKEEVEEIIAKV	0.172
HMEFSYMDQGLERYRAFLETHGHGNVPESYHELKLVNFVAHIRKLYRMNLLSEERRRALDEAGFVF	-2.5
HMEFVEERRNRMLDYIGENKRADVPELARHFDVTEVTIRRDLLILEQDGKLIRTHGGAMINR	-0.536
HMEGDKEIPNVIGKSINDAKKILEQAGLKLGEVKKVNDSSVAKNVVLSTNPNAGTKVSAGDAVSITVAEG	0.106
HMEGGLIMDRIEKGLQSGVMPDLRGLNLKDALYLLESYVQVQVIGSGGVIKQSIKTGDKFIMGSVIKLEL	-0.138
HMEGLATRLRFLRQARGLSYHALARLSGVTHTALHQIEAGKNIPGLDTAEKIAMALDVDPRWFAYGRGDPS	-3.18
HMEGPALKVWKARYLRAAILEQLLSDRWDDRGGQPIRVVVNEPTNSLLIRIPRHLWPEAEKLLQELDQR	-2.34
HMEGTEILVNIRKGMTKEEIASLLVSKGLVEDKNTFLVQTALYTSDRYPIQPGSYTLNTAQTPEEMLAVMT	-0.0935
HMEGVNLTVQEAKQMAAIIAPLLKQGQSPYQIVTNHPELGISEKTLYNYIENDVFHEIAGITVMDL	-0.819
HMEHIVNELDRKVIDYLQSHYDAKLNDIAQGIGVSKATATKSIRKLVQTGIVHVVGSSGTGTSYNLTE	-0.465
HMEHVVFEVTESGELENNTAVKHVLNSFNNKSLNLAIDDFGTGYSNLRYIRDMMFGIIKIDRLFIKDINES	0.324
HMEIDFDKINSIFNDANKLYEEGDYFEANNLYKNIVSSNIISKDLYYNLGLSYAKIGSNGYAILWYERALN	-0.0259
HMEIEEIDYGTFLQMVEDGVVEKIELTDTQIFLTSTVDNDDKVYTTGVMPDQDLTNRLIEAGVVNFGKVV	0.134
HMEIFSIEPDSYLGSGEEIASYYREGVTVIVNMAKLSDAESLRMVDFMSGLKLALLGNIKRITKHVYLLTP	-0.0777
HMEIITIVSDINGKRIDAWLSEKLENYSRSFIQKLIQNENVKVNNNIVKANYKLKNGDAVAVSIPEPV	0.179
HMEILNYVVSDGQSGIRIDRYLSDSNEDLSRSYIQKLLKEQKVTVQGTFVKANYKVQAGDVITVEVPDMA	-0.884
HMEILPAYRDIKKEALLGNINAEFKYVNLLLEHNYIEQAFNIIEDMKTRVDDNPEFEELKSRVADAYLMY	-1.56
